T1: peptide Aβ 29-40
T1 construct: Bought from Bachem; also called Aβ42 fragment 29-40
T1 peptide: GAIIGLMVGGVV

T2: peptide Aβ 33-42
T2 construct: Bought from Bachem; also called Aβ42 fragment 33-42
T2 peptide: GLMVGGVVIA

T3: Aβ42 fragment 1-11
T3 construct: Bought from Bachem; also called Aβ 1-11; printed as fragment 1-10 in the result sentence
T3 peptide: DAEFRHDSGYE

T4: Aβ42 fragment 22-35
T4 construct: Bought from Bachem; also called Aβ 22-35
T4 peptide: EDVGSNKGAIIGLM

T5: Aβ42 fragment 15-25
T5 construct: Bought from Bachem; also called Aβ 15-25
T5 peptide: QKLVFFAEDVG

T6: Aβ42 fragment 10-20
T6 construct: Bought from Bachem; also called Aβ 10-20
T6 peptide: YEVHHQKLVFF


Assays:
peptide Aβ 29-40 = target: T1, peptide Aβ 29-40; assay: competition ELISA in solution (Friguet method)
Method: (§1) Binding affinity of VHH antibodies was determined as described in Friguet et al., (1985). Various concentrations of Aβ peptides were incubated in solution overnight at 4° C. with a known quantity of VHH antibody until equilibrium was reached. The VHH antibody concentration used was determined by preliminary ELISA calibrations. Each mixture (100 μl) was transferred to a well of a microtiter plate previously coated with antigen and was incubated for 20 min at 4° C. The plates were washed with buffer A and free VHH antibodies were detected by adding β-galactosidase-conjugated goat anti-rabbit Igs (Biosys, Compiegne, France) and 4-methylumbelliferyl β-D galactoside (Sigma). Fluorescence was read (Fluoroskan, Labsystem, Finland) at 460 nm, after excitation at 355 nm. KD was estimated from the slope of the regression curve obtained by plotting the reciprocal of the fraction of bound antibody versus the reciprocal of the molar concentration of antigen.

peptide Aβ 33-42 = target: T2, peptide Aβ 33-42; assay: competition ELISA in solution (Friguet method)
Method: as §1

Aβ42 fragment 1-11 = target: T3, Aβ42 fragment 1-11; assay: competition ELISA for KD (Friguet method) with Aβ fragment peptides
Method: as §1

Aβ42 fragment 22-35 = target: T4, Aβ42 fragment 22-35; assay: as above
Method: as §1

Aβ42 fragment 15-25 = target: T5, Aβ42 fragment 15-25; assay: as above
Method: as §1

Aβ42 fragment 10-20 = target: T6, Aβ42 fragment 10-20; assay: as above
Method: as §1

[1] = target: T7, amyloid β peptide 42 (Aβ42); assay: immunohistochemistry on human AD brain sections
T7 construct: Synthetic peptide bought from Bachem, used as monomer/oligomer mixtures after incubation at 37 C; also called Aβ42 monomer; Aβ42 oligomers
Method: Immunostaining of brain tissue was performed on […] thick paraffin sections. Sections were de-paraffinized in xylene, rehydrated through ethanol
(100%, 96%, and 90%) and finally brought to water. They were incubated in 90% formic acid, washed again in water, quenched for endogenous peroxidase with 3% hydrogen peroxyde and 20% methanol, and finally washed in water. Non-specific binding was blocked by incubating the sections for 10 minutes in 2% bovine serum albumin in TBS+0.5% Tween. Appropriate dilutions of primary antibodies were then applied overnight in a humidified chamber at room temperature (typically 1 μg/ml for VHH, and 1:200 for 6F/3D mAb). Slides were washed with TBS-Tween and incubated with secondary antibodies (rabbit anti-His Tag or biotinylated anti-mouse immunoglobulins) in TBS-Tween at room temperature for 2 hours. Slides were then incubated with either peroxidase goat anti-rabbit immunoglobulins or streptavidine-peroxidase fusions, and developed with diaminobenzidine (DAB) for 2 minutes. After washing with TBS-Tween, slides were counter-stained with hematoxylin and eosin.

T7 sequence (peptide, as listed by the source): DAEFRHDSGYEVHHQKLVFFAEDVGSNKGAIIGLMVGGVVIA

Row | Kd (peptide Aβ 29-40) [nM] | Kd (peptide Aβ 33-42) [nM] | binding result (Aβ42 fragment 1-11) | binding result (Aβ42 fragment 22-35) | binding result (Aβ42 fragment 15-25) | binding result (Aβ42 fragment 10-20) | binding result [1] | Binder
1 | 20 | 20 | no binding | no binding | no binding | no binding | – | VHH V31-1 (VHH, Camelid VHH subcloned from pHEN1 into pET22, expressed in the E. coli periplasm and purified by Ni-NTA IMAC; It was detected with anti-c-myc or anti-His tag antibodies; also called VHH V31-1 antibody; CNCM I-2936) VHH: EVQLQASGGGSVQPGGSLRLSCAASGFIFGWSTMSWVRQAPGKGLEWVSTISGGGSATTYTDSVKGRFTISRDRAKNTLYLQMNSLKPEDTAIYYCNADVSTGFRYQRKDYWGRGTQVTVS
2 | – | – | – | – | – | – | binds | VHH 61-3 (VHH, Expressed from pET22 and purified by Ni-NTA; also called CNCM I-2933) VHH: EVQLQASGGGLVQAGGSLRLSCAASGSTFRINRMGWYRQAPGKQRELVASINSGGSTNYADSVKGRFTISRDNAKGTVNLTMNSLKPEDTAVYYCNRVTPWPYWGQGTQVTVS
